Reference: patent publication CN115819582A (HEFEI TIANGANG IMMUNOLOGY PHARMACEUTICAL CO LTD, dated 2023)

B1: 鼠单抗mAb001 (antibody, mouse IgG1, kappa, V domains shown)
VH: EVQLQQSGPDLVKTGASVKISCKAVGYSFTGYNVHWVKQSHDKSLEWIGYIHFYTGATDYNQKFKDKATFTVDASSNTAYMQFNSLTSEDSAVYYCAIMRWAVDYWGQGTSVTVSS
VL: QIVLTQSPTIMSASPGETVTMTCSVSSSVNYIYWYQQKSGASPKRWIYDTSKLASGVPSRFSGSGSGASYSLTISNMEAEDAATYYCQQWSSNPYTFGGGTKLEIKR
notes: Mouse monoclonal antibody from a hybridoma; also called PVRIG抗体
B2: 鼠单抗mAb002 (antibody, mouse IgG1, kappa, V domains shown)
VH: EVQLQQSGPELVKPGASMKISCKASGYSFTGYTMNWVKQSPGKNLEWIGLITPYNNDTSYNQKFKGKATLTVDKSSSTAYMELLSLTSEDSAVYYCARWVYGNYVGWFAYWGQGTLVTVSA
VL: DIVMTQSHKFMSTSVGDRVNITCKASQDVSTSVTWYQQKPGQSPKLLIYSTSYRYTGVPDRFTGSGSGTDFTFTISSVQAEDLAVYYCQQHYSTPWTFGGGTKLEIKR
notes: as for B1
B3: 鼠单抗mAb003 (antibody, mouse IgG1, kappa, V domains shown)
VH: EVQLQQSGPELVKPGASVRITCKASGYTFTDYNIHWVKQSHGKSLEWIGYIYPYNGGSGYNQKFKSQATLTVDTSSTTAYMEIRSLTSEDSAVYYCAREEVRRDEALDFWGQGTSVTVSS
VL: DIQMTQSPASLSVSVGETVNITCRVSENIYSNLAWYQQKQGKSPQLLVYGASNLPDGVPSRFSGSGSGTQYSLKINTLQSEDFGTYYCQHFWGTPYTFGGGTKLEIKR
notes: as for B1
B4: 鼠单抗mAb004 (antibody, mouse IgG1, kappa)
heavy: QVQLQQPGAELVKPGTSVKLSCKASGYNFTSYWINWVKLRPGQGLEWIGDIYPGNYSPNYNEKFLNKATLTTDTASSTAYMQLNNLASEDSAVYYCASGYFDYWGQGTTLIVSAAKTTPPSVYPLAPGSAAQTNSMVTLGCLVKGYFPEPVTVTWNSGSLSSGVHTFPAVLQSDLYTLSSSVTVPSSTWPSETVTCNVAHPASSTKVDKKIVPRDCGCKPCICTVPEVSSVFIFPPKPKDVLTITLTPKVTCVVVDISKDDPEVQFSWFVDDVEVHTAQTQPREEQFNSTFRSVSELPIMHQDWLNGKEFKCRVNSAAFPAPIEKTISKTKGRPKAPQVYTIPPPKEQMAKDKVSLTCMITDFFPEDITVEWQWNGQPAENYKNTQPIMDTDGSYFVYSKLNVQKSNWEAGNTFTCSVLHEGLHNHHTEKSLSHSPGK
light: DIVMTQSPSSLSVSAGEEVIMSCKSSQSLLNSGTQKNYLAWYQQKPGQPPKLLIYGTSTRESGVPDRFTGSGSGTDFTLTINNVQAEDLAIYYCQNDHSYPYTFGGGTKLEIKRADAAPTVSIFPPSSEQLTSGGASVVCFLNNFYPKDINVKWKIDGSERQNGVLNSWTDQDSKDSTYSMSSTLTLTKDEYERHNSYTCEATHKTSTSPIVKSFNRNEC
notes: as for B1

biological target: T1, 重组人PVRIG-人IgG1 Fc融合蛋白 (human); test: ELISA, coated PVRIG-Fc 0.5 ug/ml, anti-mouse IgG-HRP
T1 construct: The Fc gene was added at the C-terminus of the gene for the PVRIG extracellular domain; no linker or signal peptide is stated; also called 人PVRIG重组蛋白
T1 sequence (chain, as listed by the source limits assumed): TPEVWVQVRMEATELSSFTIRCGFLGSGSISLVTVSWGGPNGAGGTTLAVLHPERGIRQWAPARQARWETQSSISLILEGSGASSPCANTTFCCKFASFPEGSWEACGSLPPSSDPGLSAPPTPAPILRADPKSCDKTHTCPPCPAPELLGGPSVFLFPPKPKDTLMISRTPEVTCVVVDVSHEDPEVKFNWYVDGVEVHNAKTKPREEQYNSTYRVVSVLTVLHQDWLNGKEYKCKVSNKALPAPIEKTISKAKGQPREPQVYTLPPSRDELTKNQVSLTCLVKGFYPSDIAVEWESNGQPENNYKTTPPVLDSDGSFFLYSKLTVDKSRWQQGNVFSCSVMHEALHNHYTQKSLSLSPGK

Binding result, binds:
B1
B2
B3
B4
